Laboratory results as given in patent US20230416394A1 (ELPISCIENCE SUZHOU BIOPHARMA, published 2023).
Positions count from the first letter of the chain named. Each block holds one binder with its values, some of them ahead of it.

How the values were obtained:
6×His tagged human CD39 = biological target: T1, 6×His tagged human CD39 (human); assay: Biacore, antibody captured, 6×His human CD39 as analyte, 1:1 model
T1 chain: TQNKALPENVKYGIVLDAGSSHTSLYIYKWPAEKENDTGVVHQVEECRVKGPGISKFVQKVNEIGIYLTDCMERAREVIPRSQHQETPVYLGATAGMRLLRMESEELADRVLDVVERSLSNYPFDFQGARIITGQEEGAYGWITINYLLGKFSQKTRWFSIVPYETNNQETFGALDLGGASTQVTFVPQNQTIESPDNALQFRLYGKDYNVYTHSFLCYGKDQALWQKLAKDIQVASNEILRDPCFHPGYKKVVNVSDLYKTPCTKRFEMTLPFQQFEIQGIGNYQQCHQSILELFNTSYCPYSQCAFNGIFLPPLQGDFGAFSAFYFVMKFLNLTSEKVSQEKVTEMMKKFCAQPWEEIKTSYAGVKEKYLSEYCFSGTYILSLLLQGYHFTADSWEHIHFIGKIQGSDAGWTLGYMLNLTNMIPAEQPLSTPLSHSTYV
Description: In particular, humanized antibodies hu23.H5L5, hu23.201, hu14.H1L1 and reference antibodies I394 and T895 were characterized for binding affinity against human CD39 using Biacore (GE). Briefly the antibodies to be tested were captured to […] (GE) using Human Antibody Capture Kit (GE). The antigen of 6×His tagged human CD39 was serially diluted for multiple doses and injected at 30 μl/min for 180 s. Buffer flow was maintained for dissociation of 400 s. 3 M MgCl₂ was used for chip regeneration. The association and dissociation curves were fit with 1:1 binding model, and the Ka/Kd/KD values for each antibody were calculated.

human TGFβ1 [1] = biological target: T2, human TGFβ1 (human, UniProt P01137 279-390); assay: ELISA, coated human TGFβ1
T2 construct: also called TGFβ peptide (TGFβ1); biotinylated TGFβ1
Description: To determine the binding ability and specificity of the anti-CD39/TGFβ Trap molecules, ELISA assays were conducted using human TGFβ1, human TGFβ2, human TGFβ3 as well as mouse TGFβ1. The tested antigens were coated on NUNC 96-well immunoplate at the concentration of 1 μg/ml. Binding with increasing concentrations of anti-CD39/TGFβ Trap molecules was measured with anti-human Fc antibody horseradish peroxidase conjugate diluted in PBT buffer, then developed with TMB substrate. Soluble TGFβ trap was used as control. As shown in FIGS. 25A-25C, the anti-CD39/TGFβ Trap molecules ES014-1 and ES014-2 bind to all three TGFβ homologues: human TGFβ1, TGFβ2 and TGFβ3. The binding assay results of the other tested anti-CD39/TGFβ Trap molecules (including ES014-3, ES014-4, ES014-5, ES014-6, ES014-7) were similar and not shown herein. Moreover, the anti-CD39/TGFβ Trap molecule ES014-1 binds to mouse TGFβ1 with similar affinity as for human TGFβ1 (FIG. 25D).

human TGFβ1 [2] = biological target: T2, human TGFβ1; assay: ELISA, blocking of TGFβRII-His binding to coated TGFβ1
Description: For blocking assay, TGFβ peptide (TGFβ1) was coated on microplates. A serial dilution of purified antibodies was incubated with recombinant TGFβRII-His protein (SinoBiological) for 1 h in TGFβ1-coated plates. After wash, the remaining TGFβRII-His was detected by anti-His-HRP conjugated secondary antibody. The values of absorbance at 450 nm were read on a microtiter plate reader (Molecular Devices Corp) for the quantification of TGFβRII-His binding to TGFβ1. All the tested anti-CD39/TGFβ Trap molecules (i.e. ES014-1, ES014-2, ES014-3, ES014-6) could effectively block human TGFβ1 binding to the TGFβ receptor TGFβRII (FIG. 26, Soluble TGFβ trap (i.e. TGFβRII) was used as control). IC 50 values of the anti-CD39/TGFβ Trap molecules were analyzed using GraphPad Prism.

human CD39 [3] = biological target: T3, human CD39 (human, UniProt P49961 1-510); assay: cell-based or functional assay
T3 sequence: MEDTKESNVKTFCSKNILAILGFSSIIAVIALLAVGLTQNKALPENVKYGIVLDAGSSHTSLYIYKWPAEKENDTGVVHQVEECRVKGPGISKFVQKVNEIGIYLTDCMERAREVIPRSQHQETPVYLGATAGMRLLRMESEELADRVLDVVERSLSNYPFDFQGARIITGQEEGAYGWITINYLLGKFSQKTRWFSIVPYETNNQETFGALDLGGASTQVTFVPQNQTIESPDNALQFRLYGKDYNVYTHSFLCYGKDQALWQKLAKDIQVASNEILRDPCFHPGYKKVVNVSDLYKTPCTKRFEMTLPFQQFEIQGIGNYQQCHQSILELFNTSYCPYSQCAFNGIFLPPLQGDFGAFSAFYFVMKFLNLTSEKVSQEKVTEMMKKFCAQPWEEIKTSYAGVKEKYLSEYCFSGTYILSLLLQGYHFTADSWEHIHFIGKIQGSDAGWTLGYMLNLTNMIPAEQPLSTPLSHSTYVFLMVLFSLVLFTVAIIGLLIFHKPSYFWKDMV

human CD39 [4] = biological target: T3, human CD39; assay: FACS, SK-MEL-28 cells
human CD39 [5] = biological target: T3, human CD39; assay: FACS, MOLP-8 cells
human CD39 [6] = biological target: T3, human CD39; assay: FACS, SK-MEL-5 cells
cynomolgus CD39 = biological target: T4, cynomolgus CD39 (cynomolgus monkey, UniProt A0A7N9DGH8 1-510); assay: FACS, CHO-K1/cynoCD39 cells
T4 construct: whole, on cells; also called cyno CD39; CHOK1-cynoCD39
T4 sequence: T3 sequence with V47I, F94Y, V221I, I230T, I329V, K368N, A391S, F489V, T490I

human CD39 [7] = biological target: T3, human CD39; assay: FACS, MOLP-8 cells; remark: listed apart in the source
human CD39 [8] = biological target: T3, human CD39; assay: FACS, MOLP-8 cells, second set

T2 sequence (P01137 279-390 limits assumed): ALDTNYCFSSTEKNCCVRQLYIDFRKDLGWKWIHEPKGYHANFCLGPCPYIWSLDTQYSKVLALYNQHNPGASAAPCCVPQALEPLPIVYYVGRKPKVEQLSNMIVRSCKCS

Kd (6×His tagged human CD39): 5030 pM | koff (6×His tagged human CD39): 0.00455 s⁻¹ | kon (6×His tagged human CD39): 903000 M⁻¹ s⁻¹
B1: hu14.H1L1 (antibody, V domains shown)
VH: EVQLVESGGGLVKPGGSLRLSCAASGFTFSKYWMNWVRQAPGKGLEWVGEIRLKSNKYGTHYAESVKGRFTISRDDSKNTLYLQMNSLKTEDTAVYYCTTQLDLYWFFDVWGQGTTVTVSS
VL: EIVLTQSPATLSLSPGERATLSCRASQSISDYLHWYQQKPGQAPRLLIYYASQSISGIPARFSGSGSGTDFTLTISSLEPEDFAVYYCQNGHSLPLTFGGGTKLEIK

EC50 (human TGFβ1 [1]): 17 pM | IC50 (human TGFβ1 [2]): 580 pM
B2: Soluble TGFβ trap (i.e. TGFβRII) (receptor, UniProt P37173 24-159, looked up)
chain: IPPHVQKSVNNDMIVTDNNGAVKFPQLCKFCDVRFSTCDNQKSCMSNCSITSICEKPQEVCVAVWRKNDENITLETVCHDPKLPYHDFILEDAASPKCIMKEKKKPGETFFMCSCSSDECNDNIIFSEEYNTSNPD
notes: construct not described; also called TGFβ trap control

ATPase activity inhibition (IC50), MOLP-8 cells (human CD39 [3]): 210 pM | ATPase activity inhibition (IC50), SK-MEL-5 cells (human CD39 [3]): 100 pM | EC50 (human CD39 [4]): 940 pM | EC50 (human CD39 [5]): 110 pM | EC50 (human CD39 [6]): 490 pM | EC50 (cynomolgus CD39): 2710 pM
B3: I394 (antibody, V domains shown)
VH: QVQLVQSGAEVKKPGASVKVSCKASGYTFKSYEMHWVRQAPGQGLEWMGRINPSVGSTWYAQKFQGRVTMTRDTSTSTVYMELSSLRSEDTAVYYCARGKREGGTEYLRKWGQGTLVTVSS
VL: EIVLTQSPGTLSLSPGERATLSCRASQSVASSYLAWYQQKPGQAPRLLIYGASNRHTGIPDRFSGSGSGTDFTLTISRLEPEDFAVYYCQQYHNAITFGGGTKVEIK

EC50 (human CD39 [7]): ~15400 pM
B4: hu23.H3L1 (antibody, V domains shown)
VH: QVQLVQSGAEVKKPGASVKLSCKASGYNLKDTFLHWVRQAPGQGLEWIGRIDPANGNIKYDPKFQGRATITADTSASTAYMELSSLRSEDTAVYYCANSPYYYGSGYRIFDVWGQGTTVTVSS
VL: EIVLTQSPATLSLSPGERATLSCSAFSSVNYMHWYQQKPGQAPRLLIYTTSNLASGIPARFSGSGSGTDFTLTISSLEPEDFAVYYCQQRSTYPFTFGQGTKLEIK

EC50 (human CD39 [8]): ~78200 pM
B5: hu23.H1L1 (antibody, V domains shown)
VH: B4 VH with L20V, G44R, I48M, A68V, A72R, N98R
VL: B4 VL
